In this assay the target is T1, 4F2hc (CD98hc, SLC3A2), isoform b (human, UniProt P08195-5 1-631).
T1 construct: Purified as a complex with m1 (LAT1); also called heavy chain; source: HEK293F, coexpressed with LAT1, purified (anti-FLAG resin, nickel-NTA, size-exclusion chromatography in GDN)
T1 sequence (looked up): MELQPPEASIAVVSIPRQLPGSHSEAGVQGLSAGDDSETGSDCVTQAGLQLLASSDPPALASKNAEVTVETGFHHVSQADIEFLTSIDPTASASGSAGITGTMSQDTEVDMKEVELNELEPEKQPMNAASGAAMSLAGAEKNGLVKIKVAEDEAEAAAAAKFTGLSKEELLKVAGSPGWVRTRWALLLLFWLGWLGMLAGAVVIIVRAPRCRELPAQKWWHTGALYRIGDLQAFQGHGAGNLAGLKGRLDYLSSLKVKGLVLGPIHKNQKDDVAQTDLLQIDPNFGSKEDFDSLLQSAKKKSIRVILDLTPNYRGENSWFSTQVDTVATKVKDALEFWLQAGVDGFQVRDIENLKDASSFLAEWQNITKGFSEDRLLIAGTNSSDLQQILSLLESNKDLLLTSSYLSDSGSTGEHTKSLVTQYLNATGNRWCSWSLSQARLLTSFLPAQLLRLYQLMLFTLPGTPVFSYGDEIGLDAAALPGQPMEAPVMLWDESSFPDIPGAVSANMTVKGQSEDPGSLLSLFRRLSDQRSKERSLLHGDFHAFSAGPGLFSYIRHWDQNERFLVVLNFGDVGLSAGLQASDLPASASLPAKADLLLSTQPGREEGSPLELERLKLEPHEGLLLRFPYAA
The assay can be described thus: cryo-EM structure; LAT1-4F2hc coexpressed and purified as a complex in 25 mM Hepes pH 7.5, 150 mM NaCl, 0.01% GDN; incubated with 10 mM Leu, 1 mM Trp, 1 mM L-DOPA or 1 mM Tyr for 2 h; four structures. The following applies: both partners purified.

B1: L-type amino acid transporter 1 (LAT1, SLC7A5) (natural protein)
chain: not shown
notes: LAT1 (SLC7A5), human, full-length cDNA NM_003486.7 in pCAG vector; Purified as a complex with m2 (4F2hc); also called light chain; source: HEK293F, coexpressed with 4F2hc, purified (anti-FLAG resin, nickel-NTA, size-exclusion chromatography in GDN)
As to B1, the binding result is reported as “binds”.
